Laboratory results as given in patent US7455978.

What follows are substances tested against ω-fragment of β-galactosidase [β-galactosidase: P00722] (assay: cell-based or functional assay).

Chain of MJ1267 (LivF)/α-fragment fusion protein (Q58663 1-257, tags or fused parts left off): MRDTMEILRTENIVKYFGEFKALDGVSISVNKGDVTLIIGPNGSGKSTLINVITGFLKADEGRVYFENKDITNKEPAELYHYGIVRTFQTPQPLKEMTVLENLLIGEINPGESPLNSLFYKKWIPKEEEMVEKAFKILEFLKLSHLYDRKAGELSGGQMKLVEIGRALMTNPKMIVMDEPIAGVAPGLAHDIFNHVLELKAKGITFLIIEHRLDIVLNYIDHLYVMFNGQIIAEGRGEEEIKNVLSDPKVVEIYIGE

| β-gal Activity (units/cell), ONPG hydrolysis in cell lysates | β-gal activity, against the wild-type Aβ/α fusion | Substance |
| --- | --- | --- |
| 94 units/cell |  | MBP G32D/α-fragment fusion protein (from UniProt P0AEX9 27-392; P00722 7-58) |
| 5 units/cell |  | CFTR NBD1-B/α-fragment fusion protein (from UniProt P13569 404-644; P00722 7-58) |
|  | 3 fold | Aβ (1-42) F19P/α-fragment fusion protein (from UniProt P05067 672-713; P00722 7-58) |
| 6 units/cell |  | CFTR NBD1-D/α-fragment fusion protein (from UniProt P13569 419-655; P00722 7-58) |
| 134 units/cell |  | GST/α-fragment fusion protein (from UniProt P08515 1-218; P00722 7-58) |
| 102 units/cell |  | MBP wild-type/α-fragment fusion protein (from UniProt P0AEX9 27-392; P00722 7-58) |
| 14 units/cell |  | MBP G32D/I33P/α-fragment fusion protein (from UniProt P0AEX9 27-392; P00722 7-58) |
| 46 units/cell |  | MBP I33P/α-fragment fusion protein (from UniProt P0AEX9 27-392; P00722 7-58) |
| 159 units/cell |  | TRx/α-fragment fusion protein (from UniProt P0AA25 1-109; P00722 7-58) |

| Substance | β-gal Activity (units/cell), ONPG hydrolysis in cell lysates | β-gal activity, against the wild-type Aβ/α fusion |
| --- | --- | --- |
| MJ1267 (LivF)/α-fragment fusion protein (from UniProt Q58663 1-257; P00722 7-58) | 12 units/cell |  |
